Assay [1] concerns the target T1, human CD8 on human T cells (human, UniProt P01732 22-235; P10966 22-210). In words: cell-based or functional assay.
Assay [2] concerns the target T2, cynomolgus monkey CD8 on cynomolgus cells (cynomolgus monkey). Briefly: cell-based or functional assay.
The target of assay [3] is T1, human CD8 on human T cells. In words: flow cytometry, human PBMCs incubated 30 min at 37 C with the fusion protein, anti-IL-12, gated on CD8+ T cells. As to the method:
(§1) Fusion proteins H6K3-IgG-IL12 (LC) and H6K3-IgG-IL12 (1×HC) were also evaluated for their ability to bind CD8-expressing cells in human and cynomolgus monkey PBMCs. Briefly, 5×10⁴ human PBMCs (StemCell Technologies) or cynomolgus monkey PBMCs (iQ Biosciences) were incubated with 7 serial 5-fold dilutions of one of the two aforementioned H6K3-IgG-IL12 constructs for 30 minutes at 37° C. Cells were washed twice with MACS buffer and stained with viability dye and fluorophore-conjugated antibodies against IL-12 and cell-surface markers for 20 minutes at 4° C. Cells were analyzed on a FACSCelesta using Diva software (BD Biosciences). Binding activity for all treatments was quantified and represented as the mean fluorescence intensity values of IL-12 on human CD8+ T cells and NK cells (FIGS. 17A-17B) and on cynomolgus monkey CD8+ T cells and NK cells (FIGS. 17C-17D). For the H6K3-IgG-IL12 (LC) treatments, results are also reported as the frequency of IL-12+CD8+ T cells and NK cells (FIG. 17E). As shown in FIGS. 17A-17D, both H6K3-IgG-IL12 (LC) and H6K3-IgG-IL12 (1×HC) were able to selectively bind human CD8+ T cells over NK cells at a range of concentrations. Only a small proportion of human NK cells express CD8, and therefore the H6K3-IgG-IL12 (LC) construct only bound a small proportion of human NK cells (FIG. 17E upper left and upper right). […]
(In flow cytometry, cells or beads pass a laser one at a time.)

The target in assay [4] is T2, cynomolgus monkey CD8 on cynomolgus …. In words: flow cytometry, cynomolgus PBMCs incubated 30 min at 37 C with the fusion protein, anti-IL-12, gated on CD8+ T cells. As to the method: as §1
Assay [5] addresses T1, human CD8 on human T cells. In words: flow cytometry, human PBMCs incubated 30 min at 37 C with the fusion protein, AF647 anti-human IL-12, gated on CD8+ T cells. As to the method:
Fusion proteins H6K3-IgG-IL12 (LC) and H6K3-IgG-IL12 (1×HC) were evaluated for their ability to selectively bind human CD8+ T cells in PBMCs. Briefly, 5×10⁴ human PBMCs (StemCell Technologies) were incubated with 7 serial 5-fold dilutions of one of the two aforementioned H6K3-IgG-IL12 constructs for 30 minutes at 37° C. Cells were washed twice with MACS buffer and stained for 20 minutes at 4° C. with fluorophore-conjugated anti-CD3, anti-CD4, anti-CD8, anti-CD56, and anti-IL12 antibodies, and viability dye. Cells were analyzed on a FACSCelesta using Diva software (BD Biosciences). Binding activity was quantified and represented as the mean fluorescent intensity values of IL-12 on either CD8+ T cells or NK Cells. As shown in FIGS. 16A-16B, both H6K3-IgG-IL12 (LC) and H6K3-IgG-IL12 (1×HC) were able to selectively bind human CD8+ T cells over NK cells at a range of concentrations.

The target in assay [6] is T2, cynomolgus monkey CD8 on cynomolgus …. Briefly: flow cytometry, cynomolgus PBMCs incubated 30 min at 37 C with the fusion protein, anti-IL-12, gated on NK cells, which express CD8 in the cynomolgus monkey. Here is the method:
as §1

Assay [7] deals with T3, mouse CD8 on mouse cells (mouse, UniProt P01731 28-247).
T3 construct: whole, on cells; Carried by CD8+ T cells and CD8+ dendritic cells of C57BL/6 mice, read ex vivo after dosing; also called mCD8
T3 sequence (P01731 28-247): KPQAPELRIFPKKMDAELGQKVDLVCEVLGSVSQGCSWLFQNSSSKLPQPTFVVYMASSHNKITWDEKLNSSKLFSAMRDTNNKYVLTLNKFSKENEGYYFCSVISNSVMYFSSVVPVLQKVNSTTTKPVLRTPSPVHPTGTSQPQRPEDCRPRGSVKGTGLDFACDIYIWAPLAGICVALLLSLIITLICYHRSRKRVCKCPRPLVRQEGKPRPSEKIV
Briefly: in vivo, B16F10 tumour-bearing mice, flow cytometry of peripheral blood 4 days after the first i.v. dose; % IL-12p40+ of CD8+ T cells. Here is the method:
Mice were injected weekly for a total of 4 doses, at a dose equivalent to 10 μg of recombinant IL12. Tumor volume was measured twice per week, and mice were euthanized if tumor volume exceeded 2000 mm³. […] Specifically, in the MC38 model, treatment with the CD8IgG-IL12 (LC) Clone 2 construct controlled tumor growth up to day 21 and yielded 3/8 complete responders, whereas treatment with the CD8IgG-IL12 (1×HC) construct controlled tumor growth for the entire duration of the study and yielded 7/8 complete responders (FIGS. 6A-6C). In the B16-F10 model, which is typically less responsive to immunotherapy, both constructs limited tumor growth for up to 14 days after the initial dose (FIGS. 7A-7C).
In the same study, the two anti-CD8:IL-12 fusion constructs were also evaluated for their ability to be retained in tissues. Peripheral blood cells were collected from MC38 and B16-F10 tumor-bearing mice 4 days after administration of the first dose of the IL-12 construct. Samples were analyzed by flow cytometry. In the case of the MC38 tumor-bearing mice, IL-12 was detected on the surface of CD8⁺ T cells 4 days post-treatment with either of the two anti-CD8:IL-12 fusion protein constructs, but not on the surface of CD4⁺ T cells or NK cells (FIG. 8A). […]

In general, EC50 (read off the curve) refers to the concentration at which the effect is half-maximal.

T1 sequence (P01732 22-235, chain 1 of 2): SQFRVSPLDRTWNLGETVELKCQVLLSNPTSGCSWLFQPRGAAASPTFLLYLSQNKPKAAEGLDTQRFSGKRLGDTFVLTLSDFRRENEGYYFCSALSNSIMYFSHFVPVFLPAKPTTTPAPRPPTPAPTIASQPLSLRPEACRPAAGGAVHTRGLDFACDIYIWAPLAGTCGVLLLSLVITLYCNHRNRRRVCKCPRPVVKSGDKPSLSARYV
T1 sequence (P10966 22-210, chain 2 of 2): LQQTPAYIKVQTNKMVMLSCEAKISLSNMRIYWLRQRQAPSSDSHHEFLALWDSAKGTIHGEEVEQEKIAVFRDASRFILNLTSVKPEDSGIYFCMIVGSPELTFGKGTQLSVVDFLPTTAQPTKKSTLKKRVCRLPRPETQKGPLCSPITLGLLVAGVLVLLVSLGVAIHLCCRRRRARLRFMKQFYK

B1: H6K3-IgG-IL12 (1×HC) (other)
heavy 1: EVQLVQSGAEVKKPGATVKISCKASGYTFTDFTMHWVQQAPGKGLEWIGLVNPNNGGNIYAEKFQGRVTLTVDTSTSTAYMELSSLRSEDTAVYYCGRVPLYTSHGMDYWGQGTLVTVSSASTKGPSVFPLAPSSKSTSGGTAALGCLVKDYFPEPVTVSWNSGALTSGVHTFPAVLQSSGLYSLSSVVTVPSSSLGTQTYICNVNHKPSNTKVDKKVEPKSCDKTHTCPPCPAPEAAGGPSVFLFPPKPKDTLMISRTPEVTCVVVDVSHEDPEVKFNWYVDGVEVHNAKTKPREEQYASTYRVVSVLTVLHQDWLNGKEYKCKVSNKALGAPIEKTISKAKGQPREPQVYTLPPSRDELTKNQVSLWCLVKGFYPSDIAVEWESNGQPENNYKTTPPVLDSDGSFFLYSKLTVDKSRWQQGNVFSCSVMHEALHNHYTQKSLSLSPGKGGGSGGGGSGGGGSGGGGSIWELKKDVYVVELDWYPDAPGEMVVLTCDTPEEDGITWTLDQSSEVLGSGKTLTIQVKEFGDAGQYTCHKGGEVLSHSLLLLHKKEDGIWSTDILKDQKEPKNKTFLRCEAKNYSGRFTCWWLTTISTDLTFSVKSSRGSSDPQGVTCGAATLSAERVRGDNKEYEYSVECQEDSACPAAEESLPIEVMVDAVHKLKYENYTSSFFIRDIIKPDPPKNLQLKPLKNSRQVEVSWEYPDTWSTPHSYFSLTFCVQVQGKSKREKKDRVFTDKTSATVICRKNASISVRAQDRYYSSSWSEWASVPCSGGGSGGGSGGGSGGGSRNLPVATPDPGMFPCLHHSQNLLRAVSNMLQKARQTLEFYPCTSEEIDHEDITKDKTSTVEACLPLELTKNESCLNSRETSFITNGSCLASRKTSFMMALCLSSIYEDLKMYQVEFKTMNAKLLMDPKRQIFLDQNMLAVIDELMQALNFNSETVPQKSSLEEPDFYKTKIKLCILLHAFRIRAVTIDRVMSYLNAS
heavy 2: EVQLVQSGAEVKKPGATVKISCKASGYTFTDFTMHWVQQAPGKGLEWIGLVNPNNGGNIYAEKFQGRVTLTVDTSTSTAYMELSSLRSEDTAVYYCGRVPLYTSHGMDYWGQGTLVTVSSASTKGPSVFPLAPSSKSTSGGTAALGCLVKDYFPEPVTVSWNSGALTSGVHTFPAVLQSSGLYSLSSVVTVPSSSLGTQTYICNVNHKPSNTKVDKKVEPKSCDKTHTCPPCPAPEAAGGPSVFLFPPKPKDTLMISRTPEVTCVVVDVSHEDPEVKFNWYVDGVEVHNAKTKPREEQYASTYRVVSVLTVLHQDWLNGKEYKCKVSNKALGAPIEKTISKAKGQPREPQVYTLPPSRDELTKNQVSLSCAVKGFYPSDIAVEWESNGQPENNYKTTPPVLDSDGSFFLVSKLTVDKSRWQQGNVFSCSVMHEALHNHYTQKSLSLSPGK
light: EIVLTQSPATLSLSPGERATISCRASESVDSYDINSMHWYQQKPGQAPRLLIYRASHLQSGIPARFSGSGSRTDFTLTISSLEPEDFATYYCQQSNEDPLTFGQGTKLEIKRTVAAPSVFIFPPSDEQLKSGTASVVCLLNNFYPREAKVQWKVDNALQSGNSQESVTEQDSKDSTYSLSSTLTLSKADYEKHKVYACEVTHQGLSSPVTKSFNRGEC
notes: also called hCD8IgG-1×IL12 (HC); hCD8IgG-IL12 (1 × HC)
In the case of B1, the “EC50 for stimulation of pSTAT4 signaling, human CD8+ T cells in activated PBMCs” value in assay [1] was determined as 2.3 pM. In addition, the “EC50 for stimulation of pSTAT4 signaling, cynomolgus CD8+ T cells in activated PBMCs” value in assay [2] came to 2.3 pM. Also, the “EC50 for stimulation of pSTAT4 signaling, cynomolgus NK cells in activated PBMCs” value in assay [2] was 2 pM. Besides, the “EC50 (read off the curve)” value was around 0.04 nM in assay [3], around 0.05 nM in assay [4], around 0.06 nM in assay [5] and around 0.09 nM in assay [6].

B2: rIL-12 (ligand)
alpha: RVIPVSGPARCLSQSRNLLKTTDDMVKTAREKLKHYSCTAEDIDHEDITRDQTSTLKTCLPLELHKNESCLATRETSSTTRGSCLPPQKTSLMMTLCLGSIYEDLKMYQTEFQAINAALQNHNHQQIILDKGMLVAIDELMQSLNHNGETLRQKPPVGEADPYRVKMKLCILLHAFSTRVVTINRVMGYLSSA
beta: MWELEKDVYVVEVDWTPDAPGETVNLTCDTPEEDDITWTSDQRHGVIGSGKTLTITVKEFLDAGQYTCHKGGETLSHSHLLLHKKENGIWSTEILKNFKNKTFLKCEAPNYSGRFTCSWLVQRNMDLKFNIKSSSSSPDSRAVTCGMASLSAEKVTLDQRDYEKYSVSCQEDVTCPTAEETLPIELALEARQQNKYENYSTSFFIRDIIKPDPPKNLQMKPLKNSQVEVSWEYPDSWSTPHSYFSLKFFVRIQRKKEKMKETEEGCNQKGAFLVEKTSTEVQCKGGNVCVQAQDRYYNSSCSKWACVPCRVRS
notes: also called rmIL-12; non-targeted recombinant mouse IL-12; copies: 1 + 1
Take B2: the binding result in assay [7] is reported as “no binding”.

(Values after patent publication US20250101107A1 (REPERTOIRE IMMUNE MEDICINES, published 2025).)
